From publication PMC12749359, “Chromosome compartment assembly is essential for subtelomeric gene silencing in trypanosomes” (Nature Communications, 2025)

Experiments:
[1] = molecular target: T1, repressor-activator protein 1, His-tagged recombinant (T. brucei, UniProt Q387L4 1-855); assay: SPR
T1 chain: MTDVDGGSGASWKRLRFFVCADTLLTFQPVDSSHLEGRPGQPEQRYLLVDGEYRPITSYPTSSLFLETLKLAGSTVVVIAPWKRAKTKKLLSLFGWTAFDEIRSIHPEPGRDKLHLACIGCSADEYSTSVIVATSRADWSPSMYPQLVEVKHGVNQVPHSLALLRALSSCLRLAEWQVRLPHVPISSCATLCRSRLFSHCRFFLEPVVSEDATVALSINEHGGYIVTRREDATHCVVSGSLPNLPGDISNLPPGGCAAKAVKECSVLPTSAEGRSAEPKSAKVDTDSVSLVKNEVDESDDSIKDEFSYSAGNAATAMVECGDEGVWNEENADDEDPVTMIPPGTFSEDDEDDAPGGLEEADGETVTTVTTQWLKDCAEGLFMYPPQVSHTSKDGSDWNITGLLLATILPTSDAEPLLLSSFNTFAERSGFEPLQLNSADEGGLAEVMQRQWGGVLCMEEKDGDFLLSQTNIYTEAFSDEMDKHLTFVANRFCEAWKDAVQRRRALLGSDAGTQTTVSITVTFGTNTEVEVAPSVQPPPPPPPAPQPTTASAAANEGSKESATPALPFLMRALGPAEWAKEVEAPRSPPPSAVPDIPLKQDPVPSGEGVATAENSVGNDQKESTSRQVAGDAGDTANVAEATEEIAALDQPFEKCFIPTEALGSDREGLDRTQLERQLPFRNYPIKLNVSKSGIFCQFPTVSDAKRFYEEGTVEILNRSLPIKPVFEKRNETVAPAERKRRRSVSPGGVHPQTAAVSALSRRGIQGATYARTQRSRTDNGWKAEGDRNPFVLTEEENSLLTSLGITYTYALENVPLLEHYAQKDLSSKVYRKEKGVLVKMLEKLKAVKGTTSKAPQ

[2] = molecular target: T2, repressor-activator protein 1, His-tagged recombinant (T. brucei, UniProt Q387L4 1-855); assay: SPR; RAP1-His immobilised on NTA sensor (Nicoya OpenSPR-XT), blocked with 0.5% BSA; PIP5Pase-V5 added at 0.0008, 0.004, 0.008, 0.016 nM; 20 mM HEPES, 150 mM NaCl, 10 mM KCl, 10 mM MgCl2, 10 mM CaCl2, 0.2% NP-40; three replicates; details: both partners purified
T2 construct: RAP1 of Trypanosoma brucei, recombinant; also called RAP1-His; his-tagged RAP1; source: recombinantly produced in E. coli
T2 sequence (looked up): T1 chain

[3] = molecular target: T1, repressor-activator protein 1, …; assay: SPR

B1: phosphatidylinositol phosphate 5-phosphatase, V5-tagged (enzyme, T. brucei, UniProt Q385E2 1-564, looked up)
chain: MRSLLEGITSTLRSAQQHQTGWDPRNATSTGVPTTAQEAFSGGVPAVAQRDLSHVEGPVSSKGGAPMDCITGYSRFSTHSPPDFPFRMLMITQNVGAIGDTAAGAKEGGEEHRRECEKQAGNDELSSDAQKDVREFLSELRLLIFEYSRREYTAHIRVSNTGDDDPSHPSAADIGGQGPPPLIDVIVVHFQEIGGKSFHTEFNNYFANALQELLPEAGWTSGLLMRANDDEDQFTAVGSVVYLSHRMCPISSILSFHHRTFVCVGDDPVTYGSSPTILFHGGKFSGAGESRKGYLLISLRLGTVVVNFLNVHLYNDKKSKEAAAASPSPYALQRQEALLETLAECAAFISPDDPLFIFGDFNTRLDVHNMLQYLKEVENLDVKVSDGDVRAPDSFWELFENPQHMGVIRPYDVEVQRLLDVVAQQSGMELAEFAVRFPPTYLCQSPRDSEEATFQIDTPVHLVNDGEDKRESGTSDRISVVRVLERLSSIPHHPYGRRRVPAWCDRVLWNPPALELMTGRRTSQSVAGSSATAHGGTGVGALRRYVYRSVALRHTDHAAVTLFF
notes: PIP5Pase of Trypanosoma brucei, endogenous allele tagged at the C-terminus (pMOTag3V5) in Lister 427 single-marker cells; also called PIP5Pase; PIP5Pase-V5; source: T. brucei bloodstream forms, endogenously tagged allele, in lysate of DSS cross-linked cells (XLMS, IP); isolated from T. brucei (SPR); not shown: 3xV5 (42 amino acids), C-terminal, kept
Binder B1 has a Kd [1] of 0.27 µM, a Kd [2] of 0.0027 µM and a koff [3] of 0.41 s⁻¹.
